Here are results for one molecule from patent US20230241185A1, “COMPOSITION COMPRISING A DNA-DEGRADING ENZYME FOR USE IN A METHOD FOR THE TREATMENT OF IMMUNOSUPPRESSION AFTER ACUTE TISSUE INJURY” (Klinikum der Universität München, priority 2020, published 2023).

“Also recorded” adds a separate entry of the source.

The subject of one assay is FasL on BMDMs. The experiment in a line: BMDMs stimulated with post-stroke serum (±hrDNase), FasL expression by FACS. The following applies: BMDMs stimulated 10 minutes with post-stroke serum ±hrDNase; FasL 10 and 60 minutes after. In kind it is cell-based, mice. An excerpt:
Control-treated BMDMs received only FBS-containing culture media. […] Stimulation by secreted factors (left), and 2. Cell-cell contact (right).
A general note: In flow cytometry, cells or beads pass a laser one at a time.

The subject of a further assay is IL-1β. The assay is described as follows: IL-1β concentration in post-stroke serum treated ex vivo ±hrDNase. Also noted: species or system mice. The following applies: ex vivo treatment of post-stroke mouse serum ±hrDNase. As for the experimental part: Total IL-1β and caspase-1 levels from patient plasma samples (diluted 1:10 in sterile PBS) were obtained using commercial assay kits according to the manufacturers instructions (Quantikine ELISA human IL-1β, Quantikine ELISA human caspase-1 R&D systems). Total IL-1β and IL-18 levels from murine plasma samples were measured using the Duoset ELISA IL-1β and the Duoset ELISA IL-18 kit according to the manufacturer's instructions (R&D systems).

A further assay relates to splenic CD3^+ T cells. The experiment in a line: Splenic T cell counts by FACS after experimental stroke. In kind it is in vivo, mice. The conditions noted are these: hrDNase 1000 U 1 hour after surgery vs vehicle; experimental stroke; normalized to sham. An excerpt: (§1) Mice were anaesthetized with isoflurane delivered in a mixture of 30% O2 and 70% N2O. An incision was made between the ear and the eye in order to expose the temporal bone. Mice were placed in supine position, and a laser Doppler probe was affixed to the skull above the middle cerebral artery (MCA) territory. The common carotid artery and left external carotid artery were exposed via midline incision and further isolated and ligated. A 2-mm silicon-coated filament (Doccol) was inserted into the internal carotid artery, advanced gently to the MCA until resistance was felt, and occlusion was confirmed by a corresponding decrease in blood flow (i.e., a decrease in the laser Doppler flow signal by 80%. After 60 minutes of occlusion, the animals were re-anesthetized, and the filament was removed. After recovery, the mice were kept in their home cage with ad libitum access to water and food. Sham-operated mice received the same surgical procedure, but the filament was […] in lieu of being advanced to the MCA. Body temperature was maintained at 37° C. throughout surgery in all mice via feedback-controlled heating pad. The overall mortality rate of animals subjected to MCA occlusion was approximately 20%. All animals in the sham group survived the procedure. Exclusion criteria: 1. Insufficient MCA occlusion (a reduction in blood flow to […] of the baseline value). 2. Death during the surgery. 3. Lack of brain ischemia as quantified post-mortem by histological analysis.
Anti-IL1β: Mice received two injections of antagonizing anti-IL-1β in sterile saline (clone: B122, InVivoMab, BioXcell, US), 1 hour prior to and 1 hour after surgery. Anti-IL-1β or the corresponding IgG control (Armenian hamster IgG, InVivoMab, BioXcell, US) was injected i.p. at a dose of 4 mg kg^−1 body weight in a final volume of 200 μl.
Anti-FasL: Mice received two injections of antagonizing anti-FasL in sterile saline (clone: MFL3, InVivoMab, BioXcell, US), 1 hour prior to and 1 hour after surgery. […]

The test system of assay [1] is caspase-1 activity in splenic CD11b^+ monocytes. The assay is described as follows: FAM FLICA flow cytometry of caspase-1 activity (inflammasome activation) in splenic monocytes after stroke. In kind it is in vivo, mice. The following applies: hrDNase 1000 U 1 hour after surgery vs vehicle; experimental stroke; splenic monocytes.
Source text: as §1
Human recombinant DNase (hrDNase): 1000 U of human recombinant DNase (Roche, Switzerland) dissolved in incubation 1× buffer (40 mM Tris-HCl, 10 mM NaCl, 6 mM MgCl2, 1 mM CaCl2, pH 7.9, diluted in PBS, Roche) was injected i.v. in the tail vein 1 hour after surgery in a final volume of 100 μl. The control group was administered vehicle injections at the same volume, route, and timing as experimental animals.
Caspase-8 inhibitor (Z-IETD-FMK) & Caspase-9 inhibitor (Z-LEHD-FMK): The apoptosis inhibitors Z-IETD-FMK and Z-LEHD-FMK (R&D systems, US) in DMSO dissolved in PBS and injected i.p. 30 minutes after surgery. Z-LEHD-FMK was injected at a dose of […] body weight at a final volume of 200 μl. Z-IETD-FMK was injected at a dose of 0.8 mg kg^−1 body weight at a final volume of 100 μl. The control groups were administered vehicle injections at the same volume, route, and timing as experimental animals.
To detect the active forms of caspase-1 in blood, spleen, and bone marrow samples, cell suspensions were stained with the fluorescent inhibitor probe FAM-YVAD-FMK (FAM FLICA, BioRad, Germany) for 30 minutes at 37° C. according to the manufacturer's instructions. After washing, the cells were stained for CD45^+CD3^+ T cells and CD45^+Cd11b^+ monocytes. The flow cytometry data was acquired on a BD FACSVerse (for representative gating strategy, see FIG. 10B).

The next assay relates to splenic B cells. The experiment in a line: Splenic B cell counts by FACS after experimental stroke. In kind it is in vivo, mice. The following applies: hrDNase 1000 U vs control; 18 h after stroke; normalized to sham. An excerpt: (§2) Mice were anaesthetized with isoflurane delivered in a mixture of 30% O2 and 70% N2O. An incision was made between the ear and the eye in order to expose the temporal bone. Mice were placed in supine position, and a laser Doppler probe was affixed to the skull above the middle cerebral artery (MCA) territory. The common carotid artery and left external carotid artery were exposed via midline incision and further isolated and ligated. […] Lack of brain ischemia as quantified post-mortem by histological analysis. […]
(§3) The anti-mouse antibodies listed below (see Table 1) were used for surface marker staining of CD45^+ leukocytes, CD45^+CD11b^+ monocytes (+FasL^+ expression), CD3^+ T cells, CD3^+CD4^+ Thelper cells, CD3^+CD8^+ Tcytotox cells and CD19^+ B cells (for representative gating strategy, see FIG. 10A). […] Flow cytometric data was acquired using a BD FACSverse flow cytometer (BD Biosciences) and analyzed using FlowJo software (Treestar).

In a further assay the test system is cf-dsDNA. The assay is described as follows: Cell-free dsDNA quantification in serum/plasma after stroke. In kind it is in vivo, mice. The following applies: hrDNase 1000 U vs vehicle, 6 h after stroke or sham surgery.
Source text: as §2
Cell-free nucleic acids (RNA, single strand (ss) DNA and double strand (ds) DNA) levels in the plasma of mice and human patients was assessed with a Qubit 2.0 fluorometer (Invitrogen) using specific fluorescent dyes which bind either ssDNA (ssDNA Assay Kit, Thermo Fisher Scientific) or dsDNA (HS dsDNA Assay kit, Thermo Fisher Scientific). […]

Assay [2] deals with FasL on CD11b^+ monocytes. The assay is described as follows: FasL expression on splenic CD11b+ monocytes by FACS after stroke. The following applies: hrDNase 1000 U after stroke vs control. In kind it is in vivo, mice.
Source text: as §2, §3

B1: hrDNase: Human recombinant DNase (Roche, Switzerland), DNA-degrading enzyme (protein, UniProt P24855 23-282, looked up)
Deoxyribonuclease-1: LKIAAFNIQTFGETKMSNATLVSYIVQILSRYDIALVQEVRDSHLTAVGKLLDNLNQDAPDTYHYVVSEPLGRNSYKERYLFVYRPDQVSAVDSYYYDDGCEPCGNDTFNREPAIVRFFSRFTEVREFAIVPLHAAPGDAVAEIDALYDVYLDVQEKWGLEDVMLMGDFNAGCSYVRPSQWSSIRLWTSPTFQWLIPDSADTTATPTHCAYDRIVVAGMLLRGAVVPDSALPFNFQAAYGLSDQLAQAISDHYPVEVMLK
As for B1, the “FasL upregulation on serum-stimulated monocytes (BMDMs)” value with FasL on BMDMs was “completely prevented the FasL upregulation on serum-stimulated monocytes”. Also, the “IL-1β concentration of post-stroke serum” value in the assay on IL-1β is given as “IL-1β concentrations did not differ between the two stroke serum groups”; in the assay with IL-1β (listed as hrDNAse), “did not affect the serum concentration of IL-1β”. Besides, the “splenic T cell counts / T cell survival” value in the assay with splenic CD3^+ T cells is “improved T cell survival after experimental stroke; also recorded: increased splenic T cell counts”. In addition, in assay [1], the “monocyte inflammasome activation (caspase-1 probe FAM-FLICA)” value is “substantially reduced inflammasome activation in splenic monocytes; also recorded: decrease cf-dsDNA concentration in plasma and inflammasome activation in monocytes; also recorded: significantly reduced monocyte inflammasome activation”. For the same molecule, in the assay with splenic B cells, the “splenic B cell survival” value is listed as “improved B cell survival after experimental stroke”. Moreover, the “serum dsDNA (cf-dsDNA) concentration” value with cf-dsDNA was “reduction of cf-dsDNA blood concentrations; also recorded: decrease cf-dsDNA concentration in plasma; also recorded: decrease of serum dsDNA concentration in mice receiving hrDNase treatment after stroke to levels of sham-operated mice”; in the assay on cf-dsDNA (listed as human recombinant DNAse) it was “efficient degradation of cf-dsDNA”. Further, the “FasL expression on monocytes / FasL+ myeloid cell population” value in assay [2] is “prevented the expansion of FasL+myeloid cell population; also recorded: reduced FasL expression on monocytes”.
